Data taken from patent US9433687B2, “Anti-Notch3 antibodies and antibody-drug conjugates” (Pfizer Inc., priority 2012, dated 2016).

B1: ch75: rat-human chimeric anti-Notch3 antibody 75, rat variable regions fused with human IgG1 and human kappa (antibody, V domains shown)
VH: QVKLLQSGAALVKPGASVKMSCKASGYAFTDYWVTWVKQSHGKSLEWIGEISPNSGGTNFNEKFKGKATLTVDKSTSTAYMELSRLTSEDSAIYYCTRGEIRYNWFAYWGQGTLVTVSS
VL: NIVMTQSPKSMSISVGDRVTMNCKASQNVGNNIAWYQQKPGQSPKLLIYYASNRYTGVPDRFTGGGYGTDFTLTINSMQAEDAAFYYCQRLYNSPFTFGSGTKLEIK
B2: hu28 VH1.0/VL1.0: humanized r28 variant VH1.0/VL1.0, anti-Notch3 antibody (VH SEQ ID NO: 13, VL SEQ ID NO: 25) (antibody, V domains shown)
VH: EVQLVESGGGLVQPGGSLRLSCAASGFTFRDYGMTWVRQAPGKGLEWVAYISSGSNYIYYAEAVKGRFTISRDNAKNSLYLQMNSLRAEDTAVYYCARRGPFVLDAWGQGTLVTVSS
VL: DIQMTQSPSSLSASVGDRVTITCKASQSINRYLHWYQQKPGKAPKLLIYNANGLQTGVPSRFSGSGSGTDFTLTISSLQPEDFATYYCLQHNTWPDTFGGGTKVEIK

What was measured:
[1] = molecular target: T1, mouse Notch3 expressed on the cell surface of U2OS/mNotch3 cells (Mus musculus, UniProt Q61982); test: Cell-based ELISA, U2OS/mNotch3 cells; settings: Table 3; N/B = non-binding
T1 construct: U-2 OS cells stably over-expressing human or mouse full length Notch3 protein on cell surface; expressed in transfected cells; host or cells: U-2 OS (human osteosarcoma)
Protocol: Humanized hu28 and hu75, and rat-human chimeric, ch28 and ch75, anti-Notch3 antibodies were screened for cell surface Notch3 binding in a cell-based ELISA. U-2 OS cells stably over-expressing human or mouse full length Notch3 protein on cell surface (hereinafter U2OS/hNotch3 and U2OS/mNotch3, respectively) were plated at 50,000 cells/well in 96 well plates (white opaque, BD/VWR) the day before ELISA assay. On the day of the ELISA, culture media was removed from wells and serially diluted (1:3 in blocking buffer) antibody solutions were applied to the plate. Plates were incubated at room temperature for 2 hours before being washed with PBS-Mg/Ca. HRP-conjugated secondary antibody was then applied and incubated with cells for 1 hour as described above for recombinant protein ELISA. […] Data plotting and analyses were performed with Microsoft Excel and Graphpad-Prism software.

MDA-MB-468/hNotch3 = molecular target: T2, MDA-MB-468/hNotch3 (Homo sapiens, UniProt Q9UM47); test: Flow cytometry (FACS) binding, MDA-MB-468/hNotch3; settings: 4 μg/mL antibody
T2 construct: cell lines engineered to over-express full length human Notch3 protein: MDA-MB-468/hNotch3 and U2OS/hNotch3; expressed in transfected cells; host or cells: MDA-MB-468
Protocol: (§1) Unconjugated anti-Notch3 antibodies, hu28 and hu75, were examined for cell surface binding activity to Notch3 expressing cell lines by flow cytometry. Fluorescence activated cell sorting (FACS) analysis was conducted according to standard procedures. Cells were rinsed in HBSS with calcium chloride and magnesium chloride (herein termed HBSS++), harvested using trypsin without EDTA and neutralized with medium containing FBS. Cells were incubated on ice for 30 minutes with 4 μg/mL anti-Notch3 antibodies, hu28 and hu75, in HBSS++containing 3% HICS (heat-inactivated calf serum). Cells were washed three times with cold HBSS++, 3% HICS buffer. Cells were incubated in allophycocyanin-conjugated AffiniPure F(ab′)2 fragment goat anti-human IgG, Fc fragment secondary antibody (Jackson ImmunoResearch Laboratories, Inc., West Grove, Pa.) at 10 μg/mL for 30 minutes on ice in the dark. Cells were washed once with cold HBSS++/3% HICS buffer. Cells were resuspended in HBSS-++/3% HICS, 25 mM HEPES, 1 mM MgCl2 and 25 μg/ml DNaseI. 7-AAD (7-Amino-Actinomycin D) was added for exclusion of nonviable cells. Live cells were analyzed on a BD FACSCalibur flow cytometer (BD Biosciences, San Jose, Calif.). Mean fluorescence intensity (MFI) from channel FL-4 was calculated with FlowJo flow cytometry analysis software (Ashland, Oreg.).

MDA-MB-468 = molecular target: T3, MDA-MB-468 (Homo sapiens, UniProt Q9UM47); test: Flow cytometry (FACS) binding, MDA-MB-468; settings: 4 μg/mL antibody
T3 construct: endogenous Notch3 expressing cell lines, HCC2429 and MDA-MB-468; endogenous in cells; host or cells: MDA-MB-468
Protocol: as §1

[2] = system: HCC2429 or MDA-MB-468 cells; test: Co-localization with LAMP1, indirect immunofluorescence; format: cell-based, human; settings: 10 μg/ml; after incubation at 37° C. for 90 minutes
Protocol: HCC2429 or MDA-MB-468 cells were cultured in a Lab Tec II 4 chambered coverglass with cover #1.5 borosilicate sterile slides (Thermo Fisher Scientific Inc.). For binding and internalization assays, cells were washed twice with HBSS++ and unconjugated anti-Notch3 antibodies, hu75 and hu28, were added to the cells at a concentration 10 μg/ml in 2% bovine serum albumin (BSA)/HBSS++ for 25 minutes on ice. To visual membrane binding at time 0 minutes, control cells were washed with ice cold HBSS++ and then fixed in 4% paraformaldehyde in PBS for 10 minutes. For antibody internalization, cells were washed twice with ice cold HBSS++ and then pre-warmed complete growth media was added to the cells and placed inside a humidified 37° C., 5% CO2 incubator. Cells were removed from the incubator, washed and fixed as before at multiple time points from 5 minutes to 18 hours. Cells were then washed 3 times with PBS, and permeabilized for 10 minutes with 0.3% Triton X-100 in PBS. Cells were washed 3 times with PBS for 5 minutes each time and then blocked for 1 hour in 3% BSA/PBS. Anti-LAMP-1 mouse monoclonal antibody (H4A3, Abcam) was added at 1:100 in 2% BSA/PBS for overnight incubation at 4° C. Cells were washed twice with PBS for 5 minutes each and then secondary goat anti-human Alexa Fluor 488 and goat anti-mouse Alexa Fluor 555 (Life technologies) were added for 45 minutes in the dark. […]

U2OS/hNotch3 = U2OS/hNotch3 (Homo sapiens, UniProt Q9UM47); test: Flow cytometry (FACS) binding, U2OS/hNotch3; design: U-2 OS cells stably over-expressing human full length Notch3 protein on cell surface; expressed in transfected cells; host or cells: U-2 OS (human osteosarcoma); settings: 4 μg/mL antibody; positive control cell line
Protocol: as §1

HCC2429 (lung cancer) = test: In vitro cytotoxicity (MTS), HCC2429; format: cell-based, human; settings: HCC2429; data not shown
How it was run: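 Cells with endogenous Notch3 cultured four days with increasing concentrations of anti-Notch3 ADCs (chimeric or humanized antibodies with various linker-payloads, including cysteine-mutant conjugates); non-targeted ADCs served as specificity controls. Viability by MTS; IC50 from logistic non-linear regression, expressed as ng Ab/mL, with DAR given.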

HCC2429 = molecular target: T4, HCC2429 (Homo sapiens, UniProt Q9UM47); test: Flow cytometry (FACS) binding, HCC2429; settings: 4 μg/mL antibody
T4 construct: endogenous Notch3 expressing cell lines, HCC2429 and MDA-MB-468; endogenous in cells; host or cells: HCC2429
Protocol: as §1

Chain of U2OS/hNotch3 (Q9UM47 40-2321): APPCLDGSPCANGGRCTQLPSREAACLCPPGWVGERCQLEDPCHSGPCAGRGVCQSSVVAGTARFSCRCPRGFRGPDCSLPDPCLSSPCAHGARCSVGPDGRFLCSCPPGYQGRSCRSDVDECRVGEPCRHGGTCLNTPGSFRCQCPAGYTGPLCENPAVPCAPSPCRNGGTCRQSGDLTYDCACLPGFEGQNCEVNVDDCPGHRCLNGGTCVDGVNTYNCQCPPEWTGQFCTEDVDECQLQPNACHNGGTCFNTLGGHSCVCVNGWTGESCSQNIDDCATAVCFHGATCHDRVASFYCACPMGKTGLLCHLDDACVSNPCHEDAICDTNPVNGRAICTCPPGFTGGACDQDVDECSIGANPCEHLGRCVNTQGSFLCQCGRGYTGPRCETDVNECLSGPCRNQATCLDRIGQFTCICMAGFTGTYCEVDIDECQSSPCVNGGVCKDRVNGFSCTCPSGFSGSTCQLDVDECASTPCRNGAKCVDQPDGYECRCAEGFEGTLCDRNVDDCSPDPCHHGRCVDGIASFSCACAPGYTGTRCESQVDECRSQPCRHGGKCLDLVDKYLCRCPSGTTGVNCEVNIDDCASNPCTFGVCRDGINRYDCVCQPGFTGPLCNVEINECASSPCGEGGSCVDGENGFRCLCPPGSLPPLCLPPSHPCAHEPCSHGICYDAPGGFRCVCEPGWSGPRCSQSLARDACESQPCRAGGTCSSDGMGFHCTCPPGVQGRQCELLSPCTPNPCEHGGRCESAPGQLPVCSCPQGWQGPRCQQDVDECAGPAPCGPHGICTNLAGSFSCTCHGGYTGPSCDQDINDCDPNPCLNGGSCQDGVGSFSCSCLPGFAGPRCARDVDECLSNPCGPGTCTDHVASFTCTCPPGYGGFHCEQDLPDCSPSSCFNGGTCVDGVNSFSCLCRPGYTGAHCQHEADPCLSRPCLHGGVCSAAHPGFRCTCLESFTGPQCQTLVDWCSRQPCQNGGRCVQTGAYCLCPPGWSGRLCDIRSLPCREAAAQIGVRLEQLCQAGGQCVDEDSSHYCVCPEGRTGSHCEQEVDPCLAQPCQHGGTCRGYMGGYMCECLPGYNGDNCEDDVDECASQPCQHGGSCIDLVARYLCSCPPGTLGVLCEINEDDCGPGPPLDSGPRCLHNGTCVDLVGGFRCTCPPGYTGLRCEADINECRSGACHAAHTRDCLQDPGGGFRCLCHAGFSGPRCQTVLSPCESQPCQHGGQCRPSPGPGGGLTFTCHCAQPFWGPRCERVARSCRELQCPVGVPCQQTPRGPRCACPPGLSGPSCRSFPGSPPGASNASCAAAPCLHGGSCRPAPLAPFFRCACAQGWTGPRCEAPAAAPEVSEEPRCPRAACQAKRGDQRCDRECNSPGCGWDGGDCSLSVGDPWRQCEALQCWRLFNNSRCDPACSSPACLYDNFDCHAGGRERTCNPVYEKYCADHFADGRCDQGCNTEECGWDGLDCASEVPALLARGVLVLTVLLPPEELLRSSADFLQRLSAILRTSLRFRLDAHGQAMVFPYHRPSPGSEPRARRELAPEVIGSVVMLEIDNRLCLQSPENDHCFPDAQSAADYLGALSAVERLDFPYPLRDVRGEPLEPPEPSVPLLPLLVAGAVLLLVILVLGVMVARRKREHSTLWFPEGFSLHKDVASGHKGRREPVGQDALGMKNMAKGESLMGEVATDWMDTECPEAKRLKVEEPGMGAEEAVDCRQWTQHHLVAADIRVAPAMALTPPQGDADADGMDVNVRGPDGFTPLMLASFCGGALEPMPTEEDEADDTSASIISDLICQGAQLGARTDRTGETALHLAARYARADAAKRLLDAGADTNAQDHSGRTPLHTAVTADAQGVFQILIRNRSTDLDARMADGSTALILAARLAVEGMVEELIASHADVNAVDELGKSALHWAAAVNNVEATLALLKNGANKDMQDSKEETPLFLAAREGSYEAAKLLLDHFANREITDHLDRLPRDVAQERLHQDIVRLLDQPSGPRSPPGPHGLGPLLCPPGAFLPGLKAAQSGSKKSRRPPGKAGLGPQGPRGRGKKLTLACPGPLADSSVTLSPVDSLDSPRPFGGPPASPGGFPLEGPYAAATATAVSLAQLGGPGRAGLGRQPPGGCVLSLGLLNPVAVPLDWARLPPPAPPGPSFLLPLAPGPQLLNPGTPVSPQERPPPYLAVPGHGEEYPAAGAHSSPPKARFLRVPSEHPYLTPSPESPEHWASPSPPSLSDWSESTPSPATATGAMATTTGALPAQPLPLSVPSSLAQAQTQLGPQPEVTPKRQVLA
T4 sequence (Q9UM47 40-2321): as above
T3 sequence (Q9UM47 40-2321): as above
T2 sequence (Q9UM47 40-2321): as above
T1 sequence (Q61982 40-2318): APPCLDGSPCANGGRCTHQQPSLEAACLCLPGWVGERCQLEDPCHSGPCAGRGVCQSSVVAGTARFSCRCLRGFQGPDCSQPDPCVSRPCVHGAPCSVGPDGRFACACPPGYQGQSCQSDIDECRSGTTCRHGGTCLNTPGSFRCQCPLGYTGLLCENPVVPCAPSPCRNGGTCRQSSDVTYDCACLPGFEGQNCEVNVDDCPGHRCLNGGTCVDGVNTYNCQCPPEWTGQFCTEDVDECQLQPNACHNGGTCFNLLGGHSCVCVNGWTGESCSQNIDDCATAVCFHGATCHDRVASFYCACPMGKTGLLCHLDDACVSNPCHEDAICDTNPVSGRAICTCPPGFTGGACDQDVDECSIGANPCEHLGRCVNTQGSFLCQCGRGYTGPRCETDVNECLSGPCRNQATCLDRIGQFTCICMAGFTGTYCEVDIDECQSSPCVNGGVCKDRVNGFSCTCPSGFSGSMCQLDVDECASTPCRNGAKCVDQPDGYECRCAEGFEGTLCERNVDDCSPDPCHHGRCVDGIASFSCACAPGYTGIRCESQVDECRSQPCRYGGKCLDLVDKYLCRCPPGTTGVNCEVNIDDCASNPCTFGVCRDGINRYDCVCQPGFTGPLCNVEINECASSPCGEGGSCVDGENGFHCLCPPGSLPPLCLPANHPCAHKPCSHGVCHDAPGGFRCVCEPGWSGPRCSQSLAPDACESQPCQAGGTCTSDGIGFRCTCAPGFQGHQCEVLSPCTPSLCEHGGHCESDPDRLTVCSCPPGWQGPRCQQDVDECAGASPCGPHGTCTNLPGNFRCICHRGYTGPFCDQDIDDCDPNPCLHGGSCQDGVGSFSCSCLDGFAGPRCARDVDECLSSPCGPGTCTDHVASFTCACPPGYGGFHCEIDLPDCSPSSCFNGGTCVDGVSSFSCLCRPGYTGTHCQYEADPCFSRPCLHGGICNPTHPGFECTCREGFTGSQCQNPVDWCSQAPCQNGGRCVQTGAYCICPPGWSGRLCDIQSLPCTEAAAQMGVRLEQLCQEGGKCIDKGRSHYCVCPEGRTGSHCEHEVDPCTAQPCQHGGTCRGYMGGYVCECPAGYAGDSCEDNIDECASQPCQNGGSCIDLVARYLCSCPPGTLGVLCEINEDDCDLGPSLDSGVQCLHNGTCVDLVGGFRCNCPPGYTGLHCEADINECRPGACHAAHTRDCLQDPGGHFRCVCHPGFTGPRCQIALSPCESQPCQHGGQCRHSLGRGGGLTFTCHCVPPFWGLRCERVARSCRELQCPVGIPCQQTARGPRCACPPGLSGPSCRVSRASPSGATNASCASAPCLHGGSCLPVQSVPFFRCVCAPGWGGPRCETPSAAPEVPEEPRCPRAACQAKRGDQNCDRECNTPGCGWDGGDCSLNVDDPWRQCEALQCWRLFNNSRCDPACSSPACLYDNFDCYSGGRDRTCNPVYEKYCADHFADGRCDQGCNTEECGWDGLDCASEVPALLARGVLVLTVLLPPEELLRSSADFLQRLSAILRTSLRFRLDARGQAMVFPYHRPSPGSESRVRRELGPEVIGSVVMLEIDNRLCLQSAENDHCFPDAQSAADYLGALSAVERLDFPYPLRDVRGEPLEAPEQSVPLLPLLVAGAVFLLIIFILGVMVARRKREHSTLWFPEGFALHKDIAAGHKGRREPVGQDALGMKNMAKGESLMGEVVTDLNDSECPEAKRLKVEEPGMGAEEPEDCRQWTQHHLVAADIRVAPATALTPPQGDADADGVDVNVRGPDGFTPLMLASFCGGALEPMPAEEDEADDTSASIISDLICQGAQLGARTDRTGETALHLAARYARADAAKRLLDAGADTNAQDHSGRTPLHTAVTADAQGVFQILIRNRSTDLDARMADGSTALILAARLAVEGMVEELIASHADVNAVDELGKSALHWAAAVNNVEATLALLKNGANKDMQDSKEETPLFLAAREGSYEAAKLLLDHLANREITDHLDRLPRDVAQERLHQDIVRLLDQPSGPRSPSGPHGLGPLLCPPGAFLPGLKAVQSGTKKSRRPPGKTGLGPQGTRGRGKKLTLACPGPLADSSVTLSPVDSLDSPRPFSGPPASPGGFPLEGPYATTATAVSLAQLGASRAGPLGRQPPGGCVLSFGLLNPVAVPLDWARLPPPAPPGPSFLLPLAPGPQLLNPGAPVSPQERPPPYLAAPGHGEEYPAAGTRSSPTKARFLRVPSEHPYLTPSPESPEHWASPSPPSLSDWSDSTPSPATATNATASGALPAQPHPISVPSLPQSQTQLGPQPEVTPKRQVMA

Molecule	EC50 (nM) cell surface Notch3 binding ELISA, Full-length Mouse Notch3 [1]	MFI (MDA-MB-468/hNotch3)	MFI (MDA-MB-468)	co-localization with LAMP1 after internalization [2]	MFI (U2OS/hNotch3)	effect of unconjugated antibody on viability (HCC2429 (lung cancer))	MFI (HCC2429)
B1	N/B	–	–	–	–	–	–
B2	–	1192	557	co-localized with anti-LAMP1 antibodies	256	did not affect the viability	564
